± gives the uncertainty stated by the source.
Experiment: self-splicing fitness, log relative to wild type (ln ratio); higher = more splicing; Tetrahymena group I intron in knt gene, E. coli kanamycin selection, DiMSum; sequences stand for … in CUCUCU…GGAGGGAAAAGUUAUCAGGCAUGCACCUGGUAGCUAGUCUUUAAACCAAUAGAUUGCAUCGGUUUAAAAGGCAAGACCGUCAAAUUGCGGGAAAGGGGUCAACAGCCGUUCAGUACCAAGUCUCAGGGGAAACUUUGAGAUGGCCUUGCAAAGGGUAUGGUAAUAAGCUGACGGACAUGGUCCUAACCACGCAGCCAAGUCCUAAGUCAACAGAUCUUCUGUUGAUAUGGAUGCAGUUCACAGACUAAAUGUCGGUCGGGGAAGAUGUAUUCUUCUCAUAAGAUAUAGUCGGACCUCUCCUUAAUGGGAGCUAGCGGAUGAAGUGAUGCAACACUGGAGCCGCUGGGAACUAAUUUGUAUGCGAAAGUAUAUUGAUUAGUUUUGGAGUACUCGUGGUCG
How it was run: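 DiMSum derived fitness as the error-weighted combination of fold changes across replicates, kanamycin versus no kanamycin, normalised to wild type. E. coli BL21(DE3) held the library, which randomised all eight P1ex-region intron nucleotides within the knt kanamycin-resistance gene on pET-22b(+). Six replicate transformations grew overnight at 37°C or 30°C on LB agar with or without 25 μg/mL kanamycin, also containing 100 μg/mL carbenicillin, 50 μM IPTG and 0.2% rhamnose, and pooled colonies were amplicon-sequenced on an Illumina HiSeq 2500.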

| Sequence | self-splicing fitness (ln) (30 °C) | self-splicing fitness (ln) (37 °C) |
| --- | --- | --- |
| ACUCAGCAAUAUUACGACGU | -0.498 ± 0.063 | 0.168 ± 0.082 |
| ACUCAGCAAUAUUACGAUAC | -0.894 ± 0.13 | -0.656 ± 0.19 |
| ACUCAGCAAUAUUACGAUCC | -3.06 ± 0.37 |  |
| ACUCAGCAAUAUUACGAUGA | -1.82 ± 0.12 | -0.791 ± 0.11 |
| ACUCAGCAAUAUUACGCAGU | -3.55 ± 0.16 | -2.28 ± 0.17 |
| ACUCAGCAAUAUUACGCCCC | -1.48 ± 0.12 | 0.148 ± 0.18 |
| ACUCAGCAAUAUUACGCGGG | -2.91 ± 0.15 | -2.68 ± 0.18 |
| ACUCAGCAAUAUUACGGCAG | -1.52 ± 0.089 | -0.501 ± 0.093 |
| ACUCAGCAAUAUUACGGCUU | -0.0445 ± 0.067 | 0.494 ± 0.086 |
| ACUCAGCAAUAUUACGGUCA | -1.11 ± 0.11 | -1.05 ± 0.1 |
| ACUCAGCAAUAUUACGUAGA | -1.41 ± 0.066 | -0.457 ± 0.092 |
| ACUCAGCAAUAUUACGUAGU | -2.86 ± 0.13 | -1.35 ± 0.12 |
| ACUCAGCAAUAUUACGUGAA | -1.27 ± 0.053 | 0.294 ± 0.086 |
| ACUGAGCAAUAUUACGAAGG | -2.53 ± 0.18 | -2.02 ± 0.24 |
| ACUGAGCAAUAUUACGAGGG | -2.5 ± 0.18 | -2.21 ± 0.33 |
| ACUGAGCAAUAUUACGAGUU | -2.88 ± 0.17 | -2.91 ± 0.28 |
| ACUGAGCAAUAUUACGCCAU | -2.4 ± 0.16 | -2.74 ± 0.27 |
| ACUGAGCAAUAUUACGCGGA | -1.94 ± 0.1 | -1.74 ± 0.12 |
| ACUGAGCAAUAUUACGCGGC | -3.69 ± 0.4 | -2.28 ± 0.28 |
| ACUGAGCAAUAUUACGCGGG | -2.64 ± 0.17 | -2.03 ± 0.18 |
| ACUGAGCAAUAUUACGCUAU | -3.58 ± 0.15 | -2.42 ± 0.14 |
| ACUGAGCAAUAUUACGGACA | -2.8 ± 0.22 | -2.27 ± 0.17 |
| ACUGAGCAAUAUUACGGAGC | -2.54 ± 0.23 | -1.44 ± 0.28 |
| ACUGAGCAAUAUUACGUAGC | -3.07 ± 0.12 | -1.66 ± 0.13 |

| Sequence | self-splicing fitness (ln) (30 °C) | self-splicing fitness (ln) (37 °C) |
| --- | --- | --- |
| ACUGAGCAAUAUUACGUCAU | -4.08 ± 0.39 | -2.26 ± 0.19 |
| ACUGAGCAAUAUUACGUUAA | -4.3 ± 0.42 | -2.15 ± 0.28 |
| ACUGAGCAAUAUUACGUUUC | -3.19 ± 0.27 | -2.6 ± 0.23 |
| ACUUAGCAAUAUUACGACAC | -2.03 ± 0.14 | -0.762 ± 0.2 |
| ACUUAGCAAUAUUACGACUC | -1.05 ± 0.12 | -0.137 ± 0.15 |
| ACUUAGCAAUAUUACGAUAU | -1.62 ± 0.087 | -1.18 ± 0.11 |
| ACUUAGCAAUAUUACGAUCU | -0.0945 ± 0.076 | 0.51 ± 0.1 |
| ACUUAGCAAUAUUACGCACC | -1.99 ± 0.23 | 0.826 ± 0.29 |
| ACUUAGCAAUAUUACGCCUA | -0.829 ± 0.29 | 0.394 ± 0.2 |
| ACUUAGCAAUAUUACGCCUC | -2.19 ± 0.26 | -1.64 ± 0.3 |
| ACUUAGCAAUAUUACGCGUU | -2.5 ± 0.12 | -2.05 ± 0.12 |
| ACUUAGCAAUAUUACGGAAG | -2.44 ± 0.13 | -1.25 ± 0.14 |
| ACUUAGCAAUAUUACGGGAC | -3.61 ± 0.19 | -2.03 ± 0.17 |
| ACUUAGCAAUAUUACGGUAG | -3.35 ± 0.23 | -1.83 ± 0.23 |
| ACUUAGCAAUAUUACGGUCC | -2.46 ± 0.12 | -1.33 ± 0.12 |
| ACUUAGCAAUAUUACGGUGA | -1.76 ± 0.15 | -1.56 ± 0.15 |
| ACUUAGCAAUAUUACGUAGU | -2.87 ± 0.11 | -2.73 ± 0.19 |
| ACUUAGCAAUAUUACGUCAU | -3.1 ± 0.2 | -1.56 ± 0.17 |
| ACUUAGCAAUAUUACGUCGC |  | -1.22 ± 0.26 |
| ACUUAGCAAUAUUACGUGCA | -1.1 ± 0.055 | -0.535 ± 0.072 |
| ACUUAGCAAUAUUACGUUCA | -0.344 ± 0.19 | -0.694 ± 0.2 |
| ACUUAGCAAUAUUACGUUCU | -1.28 ± 0.064 | -0.195 ± 0.087 |
| ACUUAGCAAUAUUACGUUUA | -1.5 ± 0.17 | -1.07 ± 0.18 |
| AGAAAGCAAUAUUACGAAAC | -3.2 ± 0.25 | -2.93 ± 0.24 |

| Sequence | self-splicing fitness (ln) (30 °C) | self-splicing fitness (ln) (37 °C) |
| --- | --- | --- |
| AGAAAGCAAUAUUACGAAAU | -1.52 ± 0.1 | -1.91 ± 0.15 |
| AGAAAGCAAUAUUACGAAGU | -3.61 ± 0.27 | -2.15 ± 0.21 |
| AGAAAGCAAUAUUACGACAU | 0.0508 ± 0.012 | 0.0923 ± 0.032 |
| AGAAAGCAAUAUUACGACCU | 0.52 ± 0.099 | 0.265 ± 0.11 |
| AGAAAGCAAUAUUACGACGU | 0.0909 ± 0.1 | 0.35 ± 0.1 |
| AGAAAGCAAUAUUACGACUU | -0.252 ± 0.072 | 0.222 ± 0.1 |
| AGAAAGCAAUAUUACGAGCA | -0.695 ± 0.11 | -0.262 ± 0.16 |
| AGAAAGCAAUAUUACGAGUA | -2.18 ± 0.097 | -1.13 ± 0.086 |
| AGAAAGCAAUAUUACGAUAG | -3.4 ± 0.38 | -1.02 ± 0.16 |
| AGAAAGCAAUAUUACGAUCU | -2.88 ± 0.11 | -0.99 ± 0.11 |
| AGAAAGCAAUAUUACGCACC | 0.221 ± 0.098 | 0.0714 ± 0.12 |
| AGAAAGCAAUAUUACGCGAU | -3.37 ± 0.17 | -1.63 ± 0.13 |
| AGAAAGCAAUAUUACGCGGG | -2.43 ± 0.24 | -2.25 ± 0.26 |
| AGAAAGCAAUAUUACGGACU | -0.691 ± 0.079 | 0.112 ± 0.089 |
| AGAAAGCAAUAUUACGGCCC | 0.946 ± 0.29 | -0.169 ± 0.27 |
| AGAAAGCAAUAUUACGGGUG | -1.41 ± 0.089 | -1.36 ± 0.14 |
| AGAAAGCAAUAUUACGGUCA | -0.253 ± 0.078 | 0.187 ± 0.091 |
| AGAAAGCAAUAUUACGUAGA | -1.52 ± 0.12 | -1.52 ± 0.14 |
| AGAAAGCAAUAUUACGUCAG | -1.94 ± 0.093 | -0.978 ± 0.11 |
| AGAAAGCAAUAUUACGUCCA | -1.06 ± 0.1 | -0.056 ± 0.13 |
| AGAAAGCAAUAUUACGUCCG | -0.86 ± 0.096 | 0.226 ± 0.14 |
| AGAAAGCAAUAUUACGUCGU | -1.9 ± 0.059 | -0.452 ± 0.081 |
| AGAAAGCAAUAUUACGUCUG | -0.808 ± 0.043 | -0.1 ± 0.063 |
| AGACAGCAAUAUUACGAACA | -1.33 ± 0.1 | -0.502 ± 0.099 |

| Sequence | self-splicing fitness (ln) (30 °C) | self-splicing fitness (ln) (37 °C) |
| --- | --- | --- |
| AGACAGCAAUAUUACGACAA | -1.34 ± 0.12 | -1.02 ± 0.12 |
| AGACAGCAAUAUUACGACUG | -1.14 ± 0.078 | -0.387 ± 0.084 |
| AGACAGCAAUAUUACGAGGG | -4.15 ± 0.16 | -2.61 ± 0.21 |
| AGACAGCAAUAUUACGAUAG | -3.16 ± 0.2 | -1.56 ± 0.26 |
| AGACAGCAAUAUUACGCAAA | -2.66 ± 0.18 | -1.37 ± 0.14 |
| AGACAGCAAUAUUACGCCGA | -2.06 ± 0.089 | -0.863 ± 0.094 |
| AGACAGCAAUAUUACGCGCU | -2.26 ± 0.12 | -1.63 ± 0.13 |
| AGACAGCAAUAUUACGCGGG | -3.46 ± 0.2 | -2.62 ± 0.18 |
| AGACAGCAAUAUUACGCGGU | -3.61 ± 0.21 | -2.4 ± 0.22 |
| AGACAGCAAUAUUACGCGUG | -1.91 ± 0.075 | -0.597 ± 0.086 |
| AGACAGCAAUAUUACGCUAC | -2.43 ± 0.2 | -2.61 ± 0.33 |
| AGACAGCAAUAUUACGCUUC | -3.78 ± 0.28 | -1.86 ± 0.27 |
| AGACAGCAAUAUUACGGACA | -1.09 ± 0.1 | -0.425 ± 0.12 |
| AGACAGCAAUAUUACGGCAG | -3.3 ± 0.15 | -1.09 ± 0.12 |
| AGACAGCAAUAUUACGGCUC | -2.59 ± 0.15 | -1.02 ± 0.13 |
| AGACAGCAAUAUUACGGGCG | -0.665 ± 0.1 | -0.459 ± 0.12 |
| AGACAGCAAUAUUACGGUUA | -0.253 ± 0.082 | -0.109 ± 0.079 |
| AGACAGCAAUAUUACGUAUG | -3.13 ± 0.15 | -0.801 ± 0.12 |
| AGACAGCAAUAUUACGUUAU | -2.29 ± 0.1 | -2.06 ± 0.12 |
| AGAGAGCAAUAUUACGAAAU | -3.71 ± 0.33 | -1.89 ± 0.24 |
| AGAGAGCAAUAUUACGAAUG | -2.07 ± 0.22 | -3.27 ± 0.47 |
| AGAGAGCAAUAUUACGAAUU | -1.19 ± 0.2 | -2.95 ± 0.32 |
| AGAGAGCAAUAUUACGAGGA | -2.71 ± 0.4 | -2.21 ± 0.34 |
